Assay results as given in patent US20110318339A1 (FABRUS, published 2011).

How the values were obtained:
[1] = target: T1, rHuman Notch-1/Fc Chimera, CF (Cat# 3647-TK) (human, UniProt P46531 19-526); test: Multispot ECL; Fab 32.5 nM
T1 construct: Bought from R&D Systems
Method: (§1) An 150 μl aliquot of 1% Bovine Serum Albumin (BSA) in Tris-buffered Saline Tween (TBST) was added to each well and allowed to incubate for 30 min at 20° C. followed by washing and tap drying to completely remove any residual solution. Subsequently, a 12.5 μl aliquot of 1% BSA TBST was added to each well followed by the addition of a 12.5 μl aliquot of a purified Fab. The plate was sealed and incubated for 1 hour at 20° C. with shaking.
(§2) Detection antibodies were prepared by individually conjugating both goat anti-human Kappa light chain polyclonal antibody (K3502-1MG, Sigma-Aldrich) and goat anti-human Lambda light chain polyclonal antibody (L1645-1 mL, Sigma-Aldrich) with Ruthenium (II) tris-bipyridine-(4-methylsulfone)-N-hydroxysuccinimide (SULFO-TAG NHS-ester, Meso Scale Discovery) according to the manufacturer's instructions. TAG-detection antibody at 25 μl was added to each well and allowed to incubate for 1 hour at 20° C. with shaking. Finally, 15 μl of Read Buffer P with Surfactant (Cat # R92PC-1, Meso Scale Discovery) was added to each well. The electrochemiluminescence was measured using a Sector Imager 2400 (Meso Scale Discovery). Data was analyzed by comparing the ECL signals for an antigen to the blank of each well. A signal to blank ratio of 4 or more was considered a “Hit” Fab.
(§3) To confirm a “Hit” from the initial Multispot ECL screening, a Fab concentration dependent titration was carried out to determine the Fab-antigen binding affinity.

[2] = target: T2, rHuman IGF-1 sR, (IGF-1 sR), CF (Cat# 391-GR) (human, UniProt P08069 31-932); test: Multispot ECL; Fab 32.5 nM
T2 construct: Bought from R&D Systems; also called insulin-like growth factor-1 soluble receptor
Method: as §1, §2, §3

[3] = target: T3, rHuman Erythropoietin R/Fc Chimera, CF (Cat# 963-ER) (human, UniProt P19235 25-250); test: Multispot ECL; Fab 32.5 nM
T3 construct: Bought from R&D Systems; also called EPO R/Fc; Epo R/Fc chimera
T3 sequence (looked up): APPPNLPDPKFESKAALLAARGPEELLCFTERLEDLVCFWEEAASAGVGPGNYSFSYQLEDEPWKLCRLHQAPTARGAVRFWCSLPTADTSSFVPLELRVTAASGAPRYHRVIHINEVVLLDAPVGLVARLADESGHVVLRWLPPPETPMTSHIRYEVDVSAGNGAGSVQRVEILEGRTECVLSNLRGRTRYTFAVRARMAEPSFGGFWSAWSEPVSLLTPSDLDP
Method: as §1, §2, §3

[4] = target: T4, rHuman HGF R/c-MET/Fc Chimera, CF (Cat# 358-MT/CF) (human, UniProt P08581 25-932); test: Multispot ECL; Fab 8.1 nM
T4 construct: Bought from R&D Systems; also called HGF R/Fc; hepatocyte growth factor receptor (HGF R/c-Met)
Method: as §1, §2, §3

[5] = target: T5, rHuman ErbB2/Fc Chimera, CF (Cat# 1129-ER) (human, UniProt P04626 23-652); test: Multispot ECL; Fab 8.1 nM
T5 construct: Bought from R&D Systems; also called human epidermal growth factor 2 receptor (ErbB2)
Method: as §1, §2, §3

[6] = target: T6, Recombinant Human DLL4 (Cat# 1506-D4/CF) (human, UniProt Q9NR61 27-529); test: Multispot ECL; Fab 8.1 nM
T6 construct: Bought from R&D Systems; also called rHuman DLL4; hDLL4
Method: as §1, §2, §3

[7] = target: T7, rHuman EGF R/Fc Chimera, CF (Cat# 344-ER) (human, UniProt P00533 25-645); test: Multispot ECL; Fab 8.1 nM
T7 construct: Bought from R&D Systems; also called epidermal growth factor receptor (EGF R)
Method: as §1, §2, §3

[8] = target: T1, rHuman Notch-1/Fc Chimera, CF (Cat# …); test: Multispot ECL; Fab 8.1 nM
Method: as §1, §2, §3

[9] = target: T2, rHuman IGF-1 sR, (IGF-1 sR), CF (Cat# …); test: Multispot ECL; Fab 8.1 nM
Method: as §1, §2, §3

[10] = target: T3, rHuman Erythropoietin R/Fc Chimera, CF …; test: Multispot ECL; Fab 8.1 nM
Method: as §1, §2, §3

[11] = target: T8, rHuman CD44/Fc Chimera, CF (Cat# 3660-CD) (human, UniProt P16070 21-220); test: Multispot ECL; Fab 8.1 nM
T8 construct: Bought from R&D Systems
Method: as §1, §2, §3

[12] = target: T4, rHuman HGF R/c-MET/Fc Chimera, CF (Cat# …); test: Multispot ECL; Fab 2.0 nM
Method: as §1, §2, §3

[13] = target: T5, rHuman ErbB2/Fc Chimera, CF (Cat# …); test: Multispot ECL; Fab 2.0 nM
Method: as §1, §2, §3

[14] = target: T6, Recombinant Human DLL4 (Cat# 1506-D4/CF); test: Multispot ECL; Fab 2.0 nM
Method: as §1, §2, §3

[15] = target: T7, rHuman EGF R/Fc Chimera, CF (Cat# …); test: Multispot ECL; Fab 2.0 nM
Method: as §1, §2, §3

[16] = target: T1, rHuman Notch-1/Fc Chimera, CF (Cat# …); test: Multispot ECL; Fab 2.0 nM
Method: as §1, §2, §3

[17] = target: T2, rHuman IGF-1 sR, (IGF-1 sR), CF (Cat# …); test: Multispot ECL; Fab 2.0 nM
Method: as §1, §2, §3

[18] = target: T3, rHuman Erythropoietin R/Fc Chimera, CF …; test: Multispot ECL; Fab 2.0 nM
Method: as §1, §2, §3

[19] = target: T8, rHuman CD44/Fc Chimera, CF (Cat# …); test: Multispot ECL; Fab 2.0 nM
Method: as §1, §2, §3

ECL signal [1]: 706 | ECL signal [2]: 561 | ECL signal [3]: 673 | ECL signal [4]: 551 | ECL signal [5]: 557 | ECL signal [6]: 1550 | ECL signal [7]: 560 | ECL signal [8]: 612 | ECL signal [9]: 518 | ECL signal [10]: 660 | ECL signal [11]: 528 | ECL signal [12]: 356 | ECL signal [13]: 382 | ECL signal [14]: 605 | ECL signal [15]: 424 | ECL signal [16]: 539 | ECL signal [17]: 367 | ECL signal [18]: 433 | ECL signal [19]: 447
B1: Fab VH1-8_IGHD2-2*01_IGHJ6*01 & L12_IGKJ1*01 (Fab, V domains shown)
VH: QVQLVQSGAEVKKPGASVKVSCKASGYTFTSYDINWVRQATGQGLEWMGWMNPNSGNTGYAQKFQGRVTMTRNTSISTAYMELSSLRSEDTAVYYCARGGYCSSTSCYADYYYYYGMDVWGQGTTVTVSS
VL: not shown
